# Measurements from article PMC8850199, “Structure, mechanism and lipid-mediated remodeling of the mammalian Na^+/H^+ exchanger NHA2” (Nature Structural & Molecular Biology, 2022).
# B1: bison NHA2ΔN (SLC9B2 without the first 69 residues), GFP-TwinStrep-His8 tag removed with TEV protease (domain or fragment, Bison bison)
# chain: RRRQIHACPPRGLLARVITNVTMVILLWAVVWSVTGSECLPGGNLFGIIMLFYCAIIGGKLFGLIKLPTLPPLPPLLGMLLAGFLIRNVPVISDNIQIKHKWSSALRSIALSVILVRAGLGLDSNALKKLKGVCVRLSLGPCLIEACTSAVLAYFLMGLPWQWGFMLGFVLGAVSPAVVVPSMLLLQEGGYGVEKGIPTLLMAAGSFDDILAITGFNTCLGMAFSTGSTVFNVLKGVLEVIIGVVTGLVLGFFIQYFPSSDQDNLVWKRAFLVLGLSVLAVFSSTYFGFPGSGGLCTLVTAFLAGRGWASTKTDVEKVIAVAWDIFQPLLFGLIGAEVLITALRPETIGLCVATLGIAVLIRILVTYLMVCFAGFNIKEKIFISFAWLPKATVQAAIGSVALDTARSHGEKQLEGYGMDVLTVAFLSIIITAPVGSLLIGLLGPRLLQKAEQNKDEEDQGETSIQV
# notes: Na+/H+ exchanger NHA2 (SLC9B2), Bison bison, without the first 69 residues of the N-terminal tail; numbers count on: the full-length bison NHA2 as printed; residues of it stay on the C-terminus after digestion; also called biNHA2ΔN; source: S. cerevisiae FGY217, purified (DDM/CHS, Ni-NTA, TEV digestion, SEC); for nanodiscs reconstituted as GFP fusion with MSP1E2 and yeast PI, then TEV digestion …
# Biological target: the molecule itself
# Experiment: native MS; detergent-purified NHA2ΔN exchanged into C12E9, ~20 μM, Q-Exactive Orbitrap modified for high m/z
protein,measurement,value
B1,stoichiometry N,2
